# Peptide text beside a SMILES is read from it. * marks the point of attachment. DOTA = O=C(O)CN1CCN(CC(=O)O)CCN(CC(=O)*)CCN(CC(=O)O)CC1
# Columns and labels:
# [1] = test system: B16F10 tumor-bearing mice; assay: in vivo; parameters: species or system C57B/L6 mice; settings: mouse
# Experimental: (§1) The male C57B/L6 mice (6–8 weeks old, 20–25 g) were purchased from HFK bioscience (Beijing, China) and divided randomly into the experimental and blocking groups. All the studies were approved by the experimental animal ethics committee of Sichuan University and were conducted in compliance with the institutional guidelines for the care and use of laboratory animals. The C57B/L6 mice were injected subcutaneously with 5 × 10^6 B16-F10 cells in 100 µL of PBS into the forelimb of the animals under anesthesia with isoflurane. After 7–10 days, the B16F10 tumor-bearing mice were established and prepared for imaging and biodistribution when xenografts grew to 500–1000 mm^3.
# (§2) PET scans were performed using a micro-PET/CT scanner (Inviscan, IRIS, Paris, France). [^68Ga]Ga-DOTA-M2pep (3.7 MBq) was administered to the B16F10 tumor-bearing mice (n = 4) via the tail vein. At 30 min, 1 h, and 2 h post-injection, the tumor-bearing mice were imaged with the micro-PET/CT scan under anesthesia with 2% isoflurane. Each scan was completed within 15 min. For the blocking scans, B16F10 tumor-bearing mice (n = 3) were pretreated with free M2pep (10 mM) in 100 μL saline by intravenous injection 60 min before administration of [^68Ga]Ga-DOTA-M2pep (3.7 MBq). Micro-PET/CT scans were acquired at 60 min post-injection as described above. The obtained images were reconstructed using three-dimensional ordered-subset expectation maximization (3D OSEM) and then processed using Osirix MD. Regions of interest (ROIs) were manually drawn over the tumor regions and organs, and quantitative analyses were calculated. Immunofluorescence staining was performed 24 h after micro-PET scan to determine the [^68Ga]Ga-DOTA-M2pep targeting efficiency. The harvested tumors were fixed with paraformaldehyde for 24 h, then were frozen and sectioned at 10 μm, followed by treatment with Fitc-M2pep, and staining with M2 TAMs marker PE-CD206 antibody and DAPI.
# in vivo [2] = assay: in vivo; parameters: species or system C57B/L6 mice; settings: male, C57B/L6, mouse, iv, 3.7 MBq, total radioactivity
# Experimental: as §1, §2
# in vitro = in vitro ADME, bovine; settings: serum
# Experimental: DOTA-M2pep (80 μg) was dissolved in 200 μL of purified water in a small vial. About 200 μL of [^68Ga]GaCl3 (44.4–59.2 MBq) was added, and 1 M sodium acetate buffer was used to adjust the final pH to 4.0–4.5. After incubation in a water bath at 55 °C for 30 min, the radiolabeling reaction was completed, and the mixture was collected. Radio-HPLC was performed to confirm the radiochemical purity of [^68Ga]Ga-DOTA-M2pep. The mobile phase was composed of solvent A, acetonitrile (ACN) solution, and solvent B, 0.1% trifluoroacetic acid (TFA) in water. The gradient solvent system was set up as follows: 0–8 min, 70% A and 30% B; 8–15 min, 100% A and 0% B; 15–17 min, 5% A and 95% B; 17–20 min, 95% A and 5% B at a flow rate of 1.0 mL/min. To investigate the in vitro stability, 3.7 MBq [^68Ga]Ga-DOTA-M2pep (100 μL) was incubated in the same volume of phosphate-buffered saline (PBS, pH = 7.4) or bovine serum at 37 °C, respectively. The radiochemical purity was assessed at 15, 30, 60, and 120 min. All experiments were performed in triplicate.
# in vivo [3] = assay: in vivo; parameters: species or system C57B/L6 mice; settings: male, C57B/L6, mouse, iv, 1.11 MBq, total radioactivity
# Experimental: The male C57B/L6 mice (6–8 weeks old, 20–25 g) were purchased from HFK bioscience (Beijing, China) and divided randomly into the experimental and blocking groups. All the studies were approved by the experimental animal ethics committee of Sichuan University and were conducted in compliance with the institutional guidelines for the care and use of laboratory animals. The C57B/L6 mice were injected subcutaneously with 5 × 10^6 B16-F10 cells in 100 µL of PBS into the forelimb of the animals under anesthesia with isoflurane. After 7–10 days, the B16F10 tumor-bearing mice were established and prepared for imaging and biodistribution when xenografts grew to 500–1000 mm^3. The B16F10 tumor-bearing mice (n = 3) were intravenously administered [^68Ga]Ga-DOTA-M2pep (1.11 MBq) for biodistribution studies. At 5, 15, 30, 60 min, and 2 h post-injection, mice were euthanized, and the organs of interest, including the blood, heart, lungs, liver, kidneys, spleen, stomach, intestine, muscle, bone, brain, and tumor, were harvested. The samples were then weighed and counted by an automatic γ-counter (PerkinElmer Wizard, Shelton, CT, USA). In the blocking group, the B16F10 tumor-bearing mice (n = 3) were pretreated with free M2pep (10 mM) in 100 μL saline by intravenous injection 60 min before administration of [^68Ga]Ga-DOTA-M2pep (1.11 MBq). The organs of interest were harvested, weighed, and counted as described above at 60 min post-injection. The percentage of tracer uptake was calculated as the percentage of injected dose per gram of tissue (%ID/g), which was decay-corrected to the start time of counting. The percentage reflected the activity associated with tissues per organ weight per actual injected dose.
smiles,measurement,setting,value
"CC(C)[C@H](NC(=O)CNC(=O)[C@H](Cc1c[nH]c2ccccc12)NC(=O)[C@@H]1CCCN1C(=O)[C@H](CC(=O)O)NC(=O)[C@H](CCC(N)=O)NC(=O)[C@H](CCC(=O)O)NC(=O)[C@H](Cc1ccc(O)cc1)NC(=O)CN1CCN(CC(=O)O)CCN(CC(=O)O)CCN(CC(=O)O)CC1)C(=O)N[C@@H](CCCCN)C(=O)N[C@@H](Cc1c[nH]c2ccccc12)C(=O)N[C@@H](Cc1c[nH]c2ccccc12)C(=O)N[C@@H](Cc1ccc(O)cc1)C(=O)O [[^68Ga]Ga-DOTA-M2pep, metal not drawn] ({DOTA}-YEQDPWGVKWWY-OH)",tumor/muscle ratio (PET),[1],3.35 ± 0.27
same,tissue to tissue ratio at 0.5 h,in vivo [2],3.19 ± 0.22
same,tissue to tissue ratio at 2 h,in vivo [2],3.12 ± 0.83
same,tissue uptake at 0.5 h,in vivo [2],2.72 ± 0.07 %ID/g
same,tissue uptake at 1 h,in vivo [2],2.93 ± 0.2 %ID/g
same,tissue uptake at 2 h,in vivo [2],2.47 ± 0.13 %ID/g
same,"remaining at 2 h, 18.5 MBq/mL",in vitro,> 85%
same,tissue uptake at 5 min,in vivo [3]; blood uptake,10.5 ± 2.2 %ID/g
same,tissue uptake at 1 h,in vivo [3]; blood uptake,1.84 ± 0.02 %ID/g
same,tissue uptake at 5 min,in vivo [3]; kidney uptake (peak),12.7 ± 3.71 %ID/g
same,tissue uptake at 1 h,in vivo [3]; liver uptake,0.96 ± 0.02 %ID/g
same,tissue uptake at 1 h,in vivo [3]; tumor uptake,3.35 ± 0.34 %ID/g
same,tissue uptake at 2 h,in vivo [3]; tumor uptake,3.12 ± 0.27 %ID/g

# Reference: paper PMC9697189, “Peptide-Based [^68Ga]Ga Labeled PET Tracer for Tumor Imaging by Targeting Tumor-Associated Macrophages” (Pharmaceutics, 2022)
